Patent US9969998B2, “Compositions of adenosine deaminase-2 (ADA2), variants thereof and methods of using same” (Halozyme, Inc., priority 2014, dated 2018)

Assays:
[1] = Heparin binding ELISA (heparin coated microtiter plate); conditions: 3 μM protein
Experimental: A 96-well plate was coated with 100 μL of 200 μg/mL heparin sodium salt (Calibochem, EMD Milipore, Billerica, Mass.; Cat. No. 375095) in Na2CO3 buffer (pH 9.6), overnight at 4° C. The wells were blocked with 5% milk in PBS, and washed 6 times with PBS. 3 μM of select rHuADA2 variants (see Table 20), WT rHuADA2 (positive control) and WT rHuADA1 (negative control) were added to the wells individually and incubated for 2 hours at room temperature, followed by washing 6 times with PBS. 100 μL of 1:1000 diluted horseradish peroxidase (HRP)-anti-FLAG antibody (Abcam, Cambridge, UK; Cat. No. Ab1238) was added to the wells to detect binding and incubated at room temperature for 1 hour. The ELISA reactions were developed by adding the 3,3′,5,5′-Tetramethylbenzidine (TMB) substrate solution (Pierce, Thermo Fisher Scientific, Rockford, Ill.) according the manufacturer's instructions and reading the optical density at 450 nm (OD450) on a plate reader.

[2] = Heparin-affinity chromatography (heparin-Sepharose, SDS-PAGE); assay type: binding; conditions: for Heparin Column Binding: compared to WT rHuADA2, 0.3 mg/mL protein
Experimental: To assess binding of variants to heparin, heparin-affinity chromatography was employed to identify heparin-bound variants. Heparin binding was tested by mixing 35 μL of rHuADA2 WT and variants with 20 μL heparin-Sepharose™ resin (GE Healthcare, Pittsburgh, Pa.; Cat. No. 17-0998-01), followed by incubating at room temperature for 30 min. The mixture was then centrifuged through a 0.22 μm centrifuge filter and the flow-through, containing the unbound protein, was collected for analysis on an SDS-PAGE gel. 35 μL of 1.5 M NaCl was added to heparin-Sepharose resin and incubated at room temperature (RT) for 10 min to elute the remaining heparin-bound protein from the heparin-Sepharose. Samples of purified WT rHuADA2 and tested variants, before and after mixing with the heparin-Sepharose resin, were analyzed by SDS-PAGE to compare the degree of heparin binding.

[3] = Adenosine deaminase (ADA) enzymatic activity assay kit; assay type: biochemical; conditions: for adenosine deaminase activity mU/mL / ΔA/min, adenosine deaminase activity: protein diluted to 5 μg/mL, serially diluted 2 fold (Table 21); for % activity vs. WT: relative to rHuADA2 WT (Table 21)

Row | Molecule | Average OD450, heparin binding ELISA ([1]; Set 1) | heparin binding compared to WT [2] | Heparin Column Binding [2] | % activity vs. WT [3] | Average OD450, heparin binding ELISA ([1]; Set 2) | enzymatic activity relative to WT rHuADA2 [3] | adenosine deaminase activity mU/mL [3] | ΔA/min, adenosine deaminase activity [3]
1 | R23A/K374A: ADA2 variant SEQ ID NO:57 (protein, human ADA2 R20A/K371A, mature numbering) IDETRAHLLLKEKMMRLGGALVLNTKEELANERLMTLKIAEMKEAMRTLIFPPSMHFFQAKHLIERSQVFNILRMMPKGAALHLHDIGIVTMDWLVRNVTYRPHCHICFTPRGIMQFRFAHPTPRPSEKCSKWILLEDYRKRVQNVTEFDDSLLRNFTLVTQHPEVIYTNQNVVWSKFETIFFTISGLIHYAPVFRDYVFRSMQEFYEDNVLYMEIRARLLPVYELSGEHHDEEWSVKTYQEVAQKFVETHPEFIGIKIIYSDHRSKDVAVIAESIRMAMGLRIKFPTVVAGFDLVGHEDTGHSLHDYKEALMIPAKDGVKLPYFFHAGETDWQGTSIDRNILDALMLNTTRIGHGFALSKHPAVRTYSWAKDIPIEVCPISNQVLKLVSDLRNHPVATLMATGHPMVISSDDPAMFGAKGLSYDFYEVFMGIGGMKADLRTLKQLAMNSIKYSTLLESEKNTFMEIWKKRWDKFIADVATK |  |  | Reduced | 150.7% | 0.17 |  | 117.6 mU/mL | 51.1
2 | R369E: ADA2 variant SEQ ID NO:33 (protein, human ADA2 R366E, mature numbering) IDETRAHLLLKEKMMRLGGRLVLNTKEELANERLMTLKIAEMKEAMRTLIFPPSMHFFQAKHLIERSQVFNILRMMPKGAALHLHDIGIVTMDWLVRNVTYRPHCHICFTPRGIMQFRFAHPTPRPSEKCSKWILLEDYRKRVQNVTEFDDSLLRNFTLVTQHPEVIYTNQNVVWSKFETIFFTISGLIHYAPVFRDYVFRSMQEFYEDNVLYMEIRARLLPVYELSGEHHDEEWSVKTYQEVAQKFVETHPEFIGIKIIYSDHRSKDVAVIAESIRMAMGLRIKFPTVVAGFDLVGHEDTGHSLHDYKEALMIPAKDGVKLPYFFHAGETDWQGTSIDRNILDALMLNTTRIGHGFALSKHPAVETYSWKKDIPIEVCPISNQVLKLVSDLRNHPVATLMATGHPMVISSDDPAMFGAKGLSYDFYEVFMGIGGMKADLRTLKQLAMNSIKYSTLLESEKNTFMEIWKKRWDKFIADVATK |  | attenuated heparin binding | Reduced | 148.5% | 0.18 | improved enzymatic activity | 115.9 mU/mL | 50.4

The next lines start with results.

Row | Average OD450, heparin binding ELISA ([1]; Set 1) | heparin binding compared to WT [2] | Heparin Column Binding [2] | % activity vs. WT [3] | Average OD450, heparin binding ELISA ([1]; Set 2) | Molecule | enzymatic activity relative to WT rHuADA2 [3] | adenosine deaminase activity mU/mL [3] | ΔA/min, adenosine deaminase activity [3]
3 | 0.2 | attenuated heparin binding | Reduced | 158.3% |  | K375D: ADA2 variant SEQ ID NO:23 (protein, human ADA2 K372D, mature numbering) IDETRAHLLLKEKMMRLGGRLVLNTKEELANERLMTLKIAEMKEAMRTLIFPPSMHFFQAKHLIERSQVFNILRMMPKGAALHLHDIGIVTMDWLVRNVTYRPHCHICFTPRGIMQFRFAHPTPRPSEKCSKWILLEDYRKRVQNVTEFDDSLLRNFTLVTQHPEVIYTNQNVVWSKFETIFFTISGLIHYAPVFRDYVFRSMQEFYEDNVLYMEIRARLLPVYELSGEHHDEEWSVKTYQEVAQKFVETHPEFIGIKIIYSDHRSKDVAVIAESIRMAMGLRIKFPTVVAGFDLVGHEDTGHSLHDYKEALMIPAKDGVKLPYFFHAGETDWQGTSIDRNILDALMLNTTRIGHGFALSKHPAVRTYSWKDDIPIEVCPISNQVLKLVSDLRNHPVATLMATGHPMVISSDDPAMFGAKGLSYDFYEVFMGIGGMKADLRTLKQLAMNSIKYSTLLESEKNTFMEIWKKRWDKFIADVATK | improved enzymatic activity | 123.5 mU/mL | 53.7
4 |  | attenuated heparin binding | Reduced | 163.2% | 0.26 | K455E: ADA2 variant SEQ ID NO:27 (protein, human ADA2 K452E, mature numbering) IDETRAHLLLKEKMMRLGGRLVLNTKEELANERLMTLKIAEMKEAMRTLIFPPSMHFFQAKHLIERSQVFNILRMMPKGAALHLHDIGIVTMDWLVRNVTYRPHCHICFTPRGIMQFRFAHPTPRPSEKCSKWILLEDYRKRVQNVTEFDDSLLRNFTLVTQHPEVIYTNQNVVWSKFETIFFTISGLIHYAPVFRDYVFRSMQEFYEDNVLYMEIRARLLPVYELSGEHHDEEWSVKTYQEVAQKFVETHPEFIGIKIIYSDHRSKDVAVIAESIRMAMGLRIKFPTVVAGFDLVGHEDTGHSLHDYKEALMIPAKDGVKLPYFFHAGETDWQGTSIDRNILDALMLNTTRIGHGFALSKHPAVRTYSWKKDIPIEVCPISNQVLKLVSDLRNHPVATLMATGHPMVISSDDPAMFGAKGLSYDFYEVFMGIGGMKADLRTLKQLAMNSIEYSTLLESEKNTFMEIWKKRWDKFIADVATK | improved enzymatic activity | 127.3 mU/mL | 55.4
5 | 0.21 | attenuated heparin binding | Reduced | 138.6% |  | K375E: ADA2 variant SEQ ID NO:24 (protein, human ADA2 K372E, mature numbering) IDETRAHLLLKEKMMRLGGRLVLNTKEELANERLMTLKIAEMKEAMRTLIFPPSMHFFQAKHLIERSQVFNILRMMPKGAALHLHDIGIVTMDWLVRNVTYRPHCHICFTPRGIMQFRFAHPTPRPSEKCSKWILLEDYRKRVQNVTEFDDSLLRNFTLVTQHPEVIYTNQNVVWSKFETIFFTISGLIHYAPVFRDYVFRSMQEFYEDNVLYMEIRARLLPVYELSGEHHDEEWSVKTYQEVAQKFVETHPEFIGIKIIYSDHRSKDVAVIAESIRMAMGLRIKFPTVVAGFDLVGHEDTGHSLHDYKEALMIPAKDGVKLPYFFHAGETDWQGTSIDRNILDALMLNTTRIGHGFALSKHPAVRTYSWKEDIPIEVCPISNQVLKLVSDLRNHPVATLMATGHPMVISSDDPAMFGAKGLSYDFYEVFMGIGGMKADLRTLKQLAMNSIKYSTLLESEKNTFMEIWKKRWDKFIADVATK | improved enzymatic activity | 108.1 mU/mL | 47
